Consider 26 variants from the supplement of paper PMC7125110.

B1: glmS ribozyme (parent)
chain: AUAAAAGCGCCAGAACUACAGAAAUGUAGUUGACGAGGAGGAGGUUUAUCGAAUUUUCGGCGGAUGCCUCCAAA

Conditions in all cases: with glucosamine-6-phosphate
The variants in series [1] derive from B1. The series can be described thus: self-cleavage kobs at 640 uM GlcN6P; higher = faster cleavage; RNA array. The procedure, abridged:
(§1)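 Barcoded ribozyme variants were transcribed in situ on sequenced MiSeq chips by E. coli RNA polymerase. At 37 °C, a hybridised Cy3 probe tracked them while glucosamine-6-phosphate (40 μM to 10 mM) in HEPES/KCl/Mg(OAc)2 buffer flowed in and tiles were imaged over ~14 h. Per-tile medians of signals normalised to baseline and to non-cleaving reference variants were fit to one- or two-exponential decays, giving kobs. kcat and KM came from weighted Michaelis–Menten fits across concentrations.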

In series [2] the parent is B1. The series can be described thus: self-cleavage kobs at 2500 uM GlcN6P; higher = faster cleavage; RNA array. The procedure, abridged: as §1
The variants in series [3] derive from B1. Kind of series: self-cleavage kobs at 10000 uM GlcN6P; higher = faster cleavage; RNA array. The procedure, abridged: as §1

± gives the standard error. This sample holds only a part of the variants without activity.

For the variant AUAAAAGCGCCAGAACUACAGAAAUGUAGCUGACGAGGAGGAGGUUUAUGGAAUUUUCGGGGGAUGCCUCCAAA [U30C C50G C61G], in the series with glucosamine-6-phosphate [1], the “self-cleavage kobs at 640 uM GlcN6P” value is 0.000327 ± 0.00012 s⁻¹.

With AUAAAAGCGCUAGAACUACAGAAAUGUAGUUGACGAGGAGGUGGUUUAUCGAAUGUUCGGCGUAUGCUUCCAAA [C11U A42U U55G G63U C68U], in the series with glucosamine-6-phosphate [1], the “self-cleavage kobs at 640 uM GlcN6P” value is below 1e-05 s⁻¹. Moreover, the “self-cleavage kobs at 2500 uM GlcN6P” value with glucosamine-6-phosphate [2] was below 1e-05 s⁻¹.

As to AUAAAAGCGUCAGAACUACAGAAAUGUAGUUGACGAGUAGGAGGUUUAUCGAAUUUUCGGCGGAUGCCACCAAA [C10U G38U U69A], the “self-cleavage kobs at 640 uM GlcN6P” value in the series with glucosamine-6-phosphate [1] was found to be 8.22e-05 ± 2.4e-05 s⁻¹.

For the variant AUAAAAGCGCCAGAACUACAGAAAUGUAGUUGACGAGGAGAAGGUUUAUCGAAUUUUCGGCGGAGGCCUCCAAA [G41A U65G], the “self-cleavage kobs at 640 uM GlcN6P” value with glucosamine-6-phosphate [1] is below 1e-05 s⁻¹.

Consider AUAAAAGCGCCAUAACUACAGAAAUGUACUUGACGAGGAGGAGGUUUAUCGAAUUUUCGACGGAUGCCCUCAAA [G13U G29C G60A U69C C70U], for which the “self-cleavage kobs at 640 uM GlcN6P” value with glucosamine-6-phosphate [1] was below 1e-05 s⁻¹.

With AUAAAAGCGCCAGAACUACAGAAAUGUAGUUGUCGAGGAGGGGGUUUAUCGAAUUUUCGGCGGAUGCAUCCAAA [A33U A42G C68A], the “self-cleavage kobs at 640 uM GlcN6P” value in the series with glucosamine-6-phosphate [1] was below 1e-05 s⁻¹. In the series with glucosamine-6-phosphate [2], the “self-cleavage kobs at 2500 uM GlcN6P” value is below 1e-05 s⁻¹.

For AUAAAAGCUCCAGAACUAAAGAAAUGUAGUUGACGAGGAGGAGGUUUAUCGAAUUUUCGGCUUAUGCCUCCAAA [G9U C19A G62U G63U], the “self-cleavage kobs at 640 uM GlcN6P” value in the series with glucosamine-6-phosphate [1] is below 1e-05 s⁻¹.

On to AUAAAAUCACCAGAACUACAGAAAUGUAGUCGACAAGGAGGAGGUUUAUCGUAUUUUCGGCGGAUGCCUCCAAA [G7U G9A U31C G35A A52U], for which the “self-cleavage kobs at 640 uM GlcN6P” value in the series with glucosamine-6-phosphate [1] was below 1e-05 s⁻¹.

For AUAAAUGCGCCAGAACUACAGAAAUGUAGUUGACGAGGAGGAGGUUUAUCGAACUUUCGGCGGAUGCGGCCAAA [A6U U54C C68G U69G], the “self-cleavage kobs at 640 uM GlcN6P” value in the series with glucosamine-6-phosphate [1] stood at 0.00033 ± 9.7e-05 s⁻¹.

With AUAAAAGCGUCAGAACUACAGAAAUGUAGUUGGCGAGGAGGAGGUUUAUCGAAAUUUCGGCGGAUGCCUCCAAA [C10U A33G U54A], the “self-cleavage kobs at 640 uM GlcN6P” value in the series with glucosamine-6-phosphate [1] was below 1e-05 s⁻¹.

Consider AUAAAAGCGCCAGAACUACAGAAAUGUAGUUGACGAGGAGGAGGUUUAUCGAUUUUUUGGCGGAUGUCUCCAAA [A53U C58U C67U], for which the “self-cleavage kobs at 640 uM GlcN6P” value with glucosamine-6-phosphate [1] worked out at 9.41e-05 ± 4.6e-05 s⁻¹.

Turning to AUAAAAGCGCCAACACUACAGAAAUGUAGGUGACGAGGAGGAGGUUUAUCGAAUUUUCGGCGGAUGCCUCCAAA [G13A A14C U30G], the “self-cleavage kobs at 640 uM GlcN6P” value with glucosamine-6-phosphate [1] is 4.76e-05 ± 1.8e-05 s⁻¹.

As for AUAAAAGUGCCAGACCUACAGAAAUGUAGUUGACCAGGAGGAGGUUUAUCGAAUUUUCGGCGGAUGCUUCCAAA [C8U A15C G35C C68U], in the series with glucosamine-6-phosphate [1], the “self-cleavage kobs at 640 uM GlcN6P” value is below 1e-05 s⁻¹.

Take AUAAAAGCGACAGAACUACAGAAAUGUAGUUGACGAGGAGGAGGUUUAUCGAAUUUUCGGGGGAUGGCUCGAAA [C10A C61G C67G C71G]: in the series with glucosamine-6-phosphate [1], the “self-cleavage kobs at 640 uM GlcN6P” value amounted to 0.000346 ± 8.8e-05 s⁻¹. Further, the “self-cleavage kobs at 2500 uM GlcN6P” value with glucosamine-6-phosphate [2] turned out to be 0.000167 ± 8.1e-05 s⁻¹.

On to AUAAAUGCGCCAGAACUACAGAAAUGUAGUUGACGAGGAGGAGGUUUAUCGAAUUCUCGGCGGAUGCGUCCAAA [A6U U56C C68G], for which the “self-cleavage kobs at 640 uM GlcN6P” value with glucosamine-6-phosphate [1] was below 1e-05 s⁻¹. The “self-cleavage kobs at 2500 uM GlcN6P” value with glucosamine-6-phosphate [2] is below 1e-05 s⁻¹.

Turning to AUAAAAGCGCCAGAACUACAGAAAUGUAGUUGAGGAGGAGGAGUUUUAUUGAAUUUUCGGCGGAUGCCUCUAAA [C34G G44U C50U C71U], the “self-cleavage kobs at 640 uM GlcN6P” value with glucosamine-6-phosphate [1] was below 1e-05 s⁻¹. Also, in the series with glucosamine-6-phosphate [2], the “self-cleavage kobs at 2500 uM GlcN6P” value was below 1e-05 s⁻¹.

Consider AUAAAAGCGCCGGAACUACAGAAAUGUAGUUGACGAGGAGGAGGUUUAUCGAAUAUUCGGCGGAUGCCUCCAAA [A12G U55A], for which the “self-cleavage kobs at 640 uM GlcN6P” value with glucosamine-6-phosphate [1] was 0.000161 ± 2.2e-05 s⁻¹. Also, the “self-cleavage kobs at 2500 uM GlcN6P” value with glucosamine-6-phosphate [2] turned out to be 0.000248 ± 4e-05 s⁻¹. Further, in the series with glucosamine-6-phosphate [3], the “self-cleavage kobs at 10000 uM GlcN6P” value stood at 0.00094 ± 8.5e-05 s⁻¹.

With AUAAAAGUGCCAGAACUACAGAAAUGUAGAUGACGAGGUGGAGGUUUAUCGAAUUUUCGGCGGAUGCCUCCAAA [C8U U30A A39U], the “self-cleavage kobs at 640 uM GlcN6P” value with glucosamine-6-phosphate [1] was below 1e-05 s⁻¹. Moreover, the “self-cleavage kobs at 2500 uM GlcN6P” value with glucosamine-6-phosphate [2] is below 1e-05 s⁻¹.

In the case of AUAAAAGCUCCAGAACUACAGAAAUGUACUUGACGAGGAGAAGGUUUAUCGAAUUUUCGGCGGAUGCCUCCAAA [G9U G29C G41A], the “self-cleavage kobs at 640 uM GlcN6P” value with glucosamine-6-phosphate [1] is below 1e-05 s⁻¹. In the series with glucosamine-6-phosphate [2], the “self-cleavage kobs at 2500 uM GlcN6P” value is below 1e-05 s⁻¹. In addition, in the series with glucosamine-6-phosphate [3], the “self-cleavage kobs at 10000 uM GlcN6P” value was below 1e-05 s⁻¹.

For the variant AUAAAAGCGUCAGAACUACAGAAAUGUAGUUGACGAGGUGUAGGUUUAUCGAAUUUUCGGCGGAUGCCUCCAAA [C10U A39U G41U], the “self-cleavage kobs at 640 uM GlcN6P” value with glucosamine-6-phosphate [1] is below 1e-05 s⁻¹.

With AUAAAAGCGCCAACACUACAGAAAUGUAGUUGACGAGGAGGGGGUUUAUCGAAUUUUCGGCGGAUGCCUUCAAA [G13A A14C A42G C70U], in the series with glucosamine-6-phosphate [1], the “self-cleavage kobs at 640 uM GlcN6P” value was 4.53e-05 ± 1.8e-05 s⁻¹. Besides, the “self-cleavage kobs at 2500 uM GlcN6P” value in the series with glucosamine-6-phosphate [2] worked out at 9.61e-05 ± 1.4e-05 s⁻¹.

For the variant AUAAAAGCGCCAGAACUACAGAAAUGUAGGUGACGAGGAGGAGGUUAAUCGAAUUUUCGUCGGAUGCCUCCAAA [U30G U47A G60U], the “self-cleavage kobs at 640 uM GlcN6P” value with glucosamine-6-phosphate [1] is below 1e-05 s⁻¹.

As for AUAAAAGCGCCAGAUCUACAGAAAUGUAGUUGACGAGGAGGAGGUUUAUAGAAUUUUCGGCGGAUGCUUCCAAA [A15U C50A C68U], in the series with glucosamine-6-phosphate [1], the “self-cleavage kobs at 640 uM GlcN6P” value is 7.76e-05 ± 2.5e-05 s⁻¹.

For the variant AUAAAAGCGCCAAAACUACAGAAAUGUAGUUGACGAGGAGGAGGUUUAUCGAAUUUUCAGCAGAUGCCUCCAAA [G13A G59A G62A], the “self-cleavage kobs at 640 uM GlcN6P” value in the series with glucosamine-6-phosphate [1] was below 1e-05 s⁻¹.

Take AUAAAAGCGCCUGAACUACAGAAAUGUAGUUGACGAGGAGGAGGUUUAUCGAAUUUUCGGCGGACGCCUUCAAA [A12U U65C C70U]: the “self-cleavage kobs at 640 uM GlcN6P” value with glucosamine-6-phosphate [1] is 0.000322 ± 8.6e-05 s⁻¹.

On to AUAAAAGCGCCAGAACUACAGAAAUGUAGUUGACGAGGAAGAGGAUUAUCGAAUUUUCGGCGGAUGCCUUCAAA [G40A U45A C70U], for which the “self-cleavage kobs at 640 uM GlcN6P” value with glucosamine-6-phosphate [1] worked out at 4.7e-05 ± 2.2e-05 s⁻¹. Further, the “self-cleavage kobs at 2500 uM GlcN6P” value with glucosamine-6-phosphate [2] amounted to 7.49e-05 ± 2.1e-05 s⁻¹.
